This experiment has as its target T-complex protein ring complex (TRiC), endogenous (human (endogenous in HEK293 cells)) (UniProt P17987). The experiment can be described thus: cryo-EM structure; in situ cryo-electron tomography of FIB-milled HEK Flp-In T-Rex 293 cells, template matching, subtomogram averaging and classification; open TRiC; untreated cells and cells treated with 100 µM HHT for 2 h.

prefoldin (PFD), endogenous (complex) displayed a percent of all TRiC with a single PFD (HHT-treated cells) of 18%, a percent of all TRiC with a single PFD (untreated cells) of 12%, a percent of all TRiC with two PFD (HHT-treated cells) of 2% and a percent of all TRiC with two PFD (untreated cells) of 1%.

For the origin of these results see PMC11754096.
